# B1: staphopain A (protein)
# chain: YNEQYVNKLENFKIRETQGNNGWCAGYTMSALLNATYNTNKYHAEAVMRFLHPNLQGQQFQFTGLTPREMIYFEQTQGRSPQLLNRMTTYNEVDNLTKNNKGIAILGSRVESRNGMHAGHAMAVVGNAKLNNGQEVIIIWNPWDNGFMTQDAKNNVIPVSNGDHYQWYSSIYGY
# How the values were obtained:
# [1] = biological target: thio-S4497 HC v1-MP-LAFG-PABC-(piperazinoBOR) AAC-193
# [2] = biological target: thioFAB 4497 MP-LAFAA-QSY7
# [3] = biological target: thioFAB 4497 MP-LAFGA-QSY7
protein,measurement,setting,value
B1,Percent cleavage pH 5,[1],100%
same,Percent cleavage pH 7.2,[1],46%
same,Percent cleavage pH 7.2,[2],23%
same,Percent cleavage pH 7.2,[3],38%

# Source: US20140356376
